{
  "source": "patent US20250243277A1",
  "about": "(AVACTA LIFE SCIENCES, published 2025)",
  "data": [
    {"target": "T1, human PD-L1-Fc (R&D Systems) (human, UniProt Q9NZQ7 19-239)", "T1 construct": "Bought from R&D Systems; Biotinylated in-house for the phage selection; also called huPD-L1-Fc; human PD-L1-Fc antigen; not shown: Fc part of the bought fusion", "T1 sequence (Q9NZQ7 19-239 limits assumed)": "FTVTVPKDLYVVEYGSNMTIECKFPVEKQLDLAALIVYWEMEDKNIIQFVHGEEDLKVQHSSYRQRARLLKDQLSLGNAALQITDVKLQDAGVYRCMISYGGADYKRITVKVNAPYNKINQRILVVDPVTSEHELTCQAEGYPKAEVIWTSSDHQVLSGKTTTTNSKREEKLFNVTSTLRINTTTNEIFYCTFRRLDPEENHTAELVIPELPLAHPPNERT", "assay": "soluble Affimer ELISA", "values": [
      {"binder": "Clone 216 (designed binder, His-tagged) MIPGGLSEAKPATPEIQEIVDKVKPQLEEKTGETYGKLEAVQYKTQVVFTEVKPFVEGTNYYIKVRAGDNKYMHLKVFKSLSWNAPFPAGEDLVLTGYQVDKNKDDELTGF", "binding result": "binds"},
      {"binder": "Clone 218 (designed binder, His-tagged) MIPGGLSEAKPATPEIQEIVDKVKPQLEEKTGETYGKLEAVQYKTQVVWRVYFPDFKGTNYYIKVRAGDNKYMHLKVFKSLDEVDEIPHFEDLVLTGYQVDKNKDDELTGF", "binding result": "binds"},
      {"binder": "Clone 22 (designed binder, His-tagged) MIPGGLSEAKPATPEIQEIVDKVKPQLEEKTGETYGKLEAVQYKTQVVHRLHFPIYYGTNYYIKVRAGDNKYMHLKVFKSLHFTLPTQHPEDLVLTGYQVDKNKDDELTGF", "binding result": "binds"},
      {"binder": "Clone 220 (designed binder, His-tagged) MIPGGLSEAKPATPEIQEIVDKVKPQLEEKTGETYGKLEAVQYKTQVVNRWNIREFEGTNYYIKVRAGDNKYMHLKVFKSLINVPVTELLEDLVLTGYQVDKNKDDELTGF", "binding result": "binds"},
      {"binder": "Clone 221 (designed binder, His-tagged) MIPGGLSEAKPATPEIQEIVDKVKPQLEEKTGETYGKLEAVQYKTQVVIQDVDWRLWGTNYYIKVRAGDNKYMHLKVFKSLVPSDWSKTIEDLVLTGYQVDKNKDDELTGF", "binding result": "binds"},
      {"binder": "Clone 251 (designed binder, His-tagged) MIPGGLSEAKPATPEIQEIVDKVKPQLEEKTGETYGKLEAVQYKTQVVATDQDWRKWGTNYYIKVRAGDNKYMHLKVFKSLIPLNWQLQEEDLVLTGYQVDKNKDDELTGF", "binding result": "binds"},
      {"binder": "Clone 222 (designed binder, His-tagged) MIPGGLSEAEPATPEIQEIVDKVKPQLEEKTGETYGKLEAVQYKTQVVQRDHFPEFPGTNYYIKVRAGDNKYMHLKVFKSLGHELYALYAEDLVLTGYQVDKNKDDELTGF", "binding result": "binds"},
      {"binder": "Clone 226 (designed binder, His-tagged) MIPGGLSEAKPATPEIQEIVDKVKPQLEEKTGETYGKLEAVQYKTQVVYKHDDEYGFGTNYYIKVRAGDNKYMHLKVFKSLKWTNRANKPEDLVLTGYQVDKNKDDELTGF", "binding result": "binds"},
      {"binder": "Clone 23 (designed binder, His-tagged) MIPGGLSEAKPATPEIQEIVDKVKPQLEEKTGETYGKLEAVQYKTQVVYWEHHHYGFGTNYYIKVRAGDNKYMHLKVFKSLAWPEIDPPVEDLVLTGYQVDKNKDDELTGF", "binding result": "binds"},
      {"binder": "Clone 82 (designed binder, His-tagged) MIPGGLSEAKPATPEIQEIVDKVKPQLEEKTGETYGKLEAVQYKTQVVFWQLHRYGFGTNYYIKVRAGDNKYMHLKVFKSLEWNRLSPLWEDLVLTGYQVDKNKDDELTGF", "binding result": "binds"},
      {"binder": "Clone 227 (designed binder, His-tagged) MIPGGLSEAKPATPEIQEIVDKVKPQLEEKTGETYGKLEAVQYKTQVVYVRWHEYGFGTNYYIKVRAGDNKYMHLKVFKSLSNQLIPQPIEDLVLTGYQVDKNKDDELTGF", "binding result": "binds"},
      {"binder": "Clone 228 (designed binder, His-tagged) MIPGGLSEAKPATPEIQEIVDKVKPQLEEKTGETYGKLEAVQYKTQVVVWTSDDAWQGTNYYIKVRAGDNKYMHLKVFKSLFKFEIYKHTEDLVLTGYQVDKNKDDELTGF", "binding result": "binds"},
      {"binder": "Clone 229 (designed binder, His-tagged) MIPGGLSEAKPATPEIQEIVDKVKPQLEEKTGETYGKLEAVQYKTQVVHSSSKPYIHGTNYYIKVRAGDNKYMHLKVFKSLNWNRPYNDLEDLVLTGYQVDKNKDDELTGF", "binding result": "binds"},
      {"binder": "Clone 230 (designed binder, His-tagged) MIPGGLSEAKPATPEIQEIVDKVKPQLEEKTGETYGKLEAVQYKTQVVHVSNFIIPHGTNYYIKVRAGDNKYMHLKVFKSLNWEGNDLATEDLVLTGYQVDKNKDDELTGF", "binding result": "binds"},
      {"binder": "Clone 231 (designed binder, His-tagged) MIPGGLSEAKPATPEIQEIVDKVKPQLEEKTGETYGKLEAVQYKTQVVARWHWFHHFGTNYYIKVRAGDNKYMHLKVFKSLNPINGQETWEDLVLTGYQVDKNKDDELTGF", "binding result": "binds"},
      {"binder": "Clone 232 (designed binder, His-tagged) MIPGGLSEAKPATPEIQEIVDKVKPQLEEKTGETYGKLEAVQYKTQVVTKHSATFFHGTNYYIKVRAGDNKYMHLKVFKSLIGNGQYWYREDLVLTGYQVDKNKDDELTGF", "binding result": "binds"},
      {"binder": "Clone 234 (designed binder, His-tagged) MIPGGLSEAKPATPEIQEIVDKVKPQLEEKTGETYGKLEAVQYKTQVVRNSGVWEFEGTNYYIKVRAGDNKYMHLKVFKSLGKYKTNWYFEDLVLTGYQVDKNKDDELTGF", "binding result": "binds"},
      {"binder": "Clone 235 (designed binder, His-tagged) MIPGGLSEAKPATPEIQEIVDKVKPQLEEKTGETYGKLEAVQYKTQVVWNPPSLPISGTNYYIKVRAGDNKYMHLKVFKSLAWDNTAKHGEDLVLTGYQVDKNKDDELTGF", "binding result": "binds"},
      {"binder": "Clone 237 (designed binder, His-tagged) MIPGGLSEAKPATPEIQEIVDKVKPQLEEKTGETYGKLEAVQYKTQVVVAGLKWHWEGTNYYIKVRAGDNKYMHLKVFKSLIYASQYDYREDLVLTGYQVDKNKDDELTGF", "binding result": "binds"},
      {"binder": "Clone 238 (designed binder, His-tagged) MIPGGLSEAKPATPEIQEIVDKVKPQLEEKTGETYGKLEAVQYKTQVVRHKGLWQFEGTNYYIKVRAGDNKYMHLKVFKSLSHQPYRATIEDLVLTGYQVDKNKDDELTGF", "binding result": "binds"},
      {"binder": "Clone 239 (designed binder, His-tagged) MIPGGLSEAKPATPEIQEIVDKVKPQLEEKTGETYGKLEAVQYKTQVVLTIPPTAFSGTNYYIKVRAGDNKYMHLKVFKSLGWNLHEVALEDLVLTGYQVDKNKDDELTGF", "binding result": "binds"},
      {"binder": "Clone 241 (designed binder, His-tagged) MIPGGLSEAKPATPEIQEIVDKVKPQLEEKTGETYGKLEAVQYKTQVVSRLHFPNFQGTNYYIKVRAGDNKYMHLKVFKSLNLEHPTDETEDLVLTGYQVDKNKDDELTGF", "binding result": "binds"},
      {"binder": "Clone 242 (designed binder, His-tagged) MIPGGLSEAKPATPEIQEIVDKVKPQLEEKTGETYGKLEAVQYKTQVVVEWSESGYDGTNYYIKVRAGDNKYMHLKVFKSLRLKSNVNIAEDLVLTGYQVDKNKDDELTGF", "binding result": "binds"},
      {"binder": "Clone 243 (designed binder, His-tagged) MIPGGLSEAKPATPEIQEIVDKVKPQLEEKTGETYGKLEAVQYKTQVVWKQITLPVDGTNYYIKVRAGDNKYMHLKVFKSLHWDEYEYDEEDLVLTGYQVDKNKDDELTGF", "binding result": "binds"},
      {"binder": "Clone 244 (designed binder, His-tagged) MIPGGLSEAKPATPEIQEIVDKVKPQLEEKTGETYGKLEAVQYKTQVVWDSEALPIDGTNYYIKVRAGDNKYMHLKVFKSLRWWPWDAVGEDLVLTGYQVDKNKDDELTGF", "binding result": "binds"},
      {"binder": "Clone 245 (designed binder, His-tagged) MIPGGLSEAKPATPEIQEIVDKVKPQLEEKTGETYGKLEAVQYKTQVVGYLELWKWSGTNYYIKVRAGDNKYMHLKVFKSLYNLHHPHKDEDLVLTGYQVDKNKDDELTGF", "binding result": "binds"},
      {"binder": "Clone 248 (designed binder, His-tagged) MIPGGLSEAKPATPEIQEIVDKVKPQLEEKTGETYGKLEAVQYKTQVVLQLPPRPHDGTNYYIKVRAGDNKYMHLKVFKSLNWEPAQHPVEDLVLTGYQVDKNKDDELTGF", "binding result": "binds"},
      {"binder": "Clone 249 (designed binder, His-tagged) MIPGGLSEAKPATPEIQEIVDKVKPQLEEKTGETYGKLEAVQYKTQVVIYYPIWGFQGTNYYIKVRAGDNKYMHLKVFKSLRWSKDGATAEDLVLTGYQVDKNKDDELTGF", "binding result": "binds"},
      {"binder": "Clone 25 (designed binder, His-tagged) MIPGGLSEAKPATPEIQEIVDKVKPQLEEKTGETYGKLEAVQYKTQVVVRHPRWFFIGTNYYIKVRAGDNKYMHLKVFKSLKKHGDEVTLEDLVLTGYQVDKNKDDELTGF", "binding result": "binds"},
      {"binder": "Clone 46 (designed binder, His-tagged) MIPGGLSEAKPATPEIQEIVDKVKPQLEEKTGETYGKLEAVQYKTQVVVQHSLWYFQGTNYYIKVRAGDNKYMHLKVFKSLFKHPEENPVEDLVLTGYQVDKNKDDELTGF", "binding result": "binds"},
      {"binder": "Clone 250 (designed binder, His-tagged) MIPGGLSEAKPATPEIQEIVDKVKPQLEEKTGETYGKLEAVQYKTQVVRDPDVFVFSGTNYYIKVRAGDNKYMHLKVFKSLWYYNDNQSGEDLVLTGYQVDKNKDDELTGF", "binding result": "binds"},
      {"binder": "Clone 252 (designed binder, His-tagged) MIPGGLSEAKPATPEIQEIVDKVKPQLEEKTGETYGKLEAVQYKTQVVAVRPIFKWAGTNYYIKVRAGDNKYMHLKVFKSLFHGPLDNYTEDLVLTGYQVDKNKDDELTGF", "binding result": "binds"},
      {"binder": "Clone 27 (designed binder, His-tagged) MIPGGLSEAKPATPEIQEIVDKVKPQLEEKTGETYGKLEAVQYKTQVVDVKPKWQWTGTNYYIKVRAGDNKYMHLKVFKSLFEGEDRDAVEDLVLTGYQVDKNKDDELTGF", "binding result": "binds"},
      {"binder": "Clone 28 (designed binder, His-tagged) MIPGGLSEAKPATPEIQEIVDKVKPQLEEKTGETYGKLEAVQYKTQVVAAFSVHPSSGTNYYIKVRAGDNKYMHLKVFKSLEKYHNIWYVEDLVLTGYQVDKNKDDELTGF", "binding result": "binds"},
      {"binder": "Clone 31 (designed binder, His-tagged) MIPGGLSEAKPATPEIQEIVDKVKPQLEEKTGETYGKLEAVQYKTQVVAQDLSAFQIGTNYYIKVRAGDNKYMHLKVFKSLIFAPLKPWREDLVLTGYQVDKNKDDELTGF", "binding result": "binds"}
    ]}
  ]
}
